For assay [1], the target named is full-length human cytoplasmic dynein 1 (wild type) (human) (UniProt Q14204). Nature of the assay: mass photometry.
The target is the same in assay [2]. As to the kind of experiment: cryo-EM structure.
Assay [3] concerns the target T1, Lis1^AAA5 (D192K, Y225A and C226D) (human, UniProt P43034 1-410, D192K | Y225A | C226D).
T1 sequence (looked up): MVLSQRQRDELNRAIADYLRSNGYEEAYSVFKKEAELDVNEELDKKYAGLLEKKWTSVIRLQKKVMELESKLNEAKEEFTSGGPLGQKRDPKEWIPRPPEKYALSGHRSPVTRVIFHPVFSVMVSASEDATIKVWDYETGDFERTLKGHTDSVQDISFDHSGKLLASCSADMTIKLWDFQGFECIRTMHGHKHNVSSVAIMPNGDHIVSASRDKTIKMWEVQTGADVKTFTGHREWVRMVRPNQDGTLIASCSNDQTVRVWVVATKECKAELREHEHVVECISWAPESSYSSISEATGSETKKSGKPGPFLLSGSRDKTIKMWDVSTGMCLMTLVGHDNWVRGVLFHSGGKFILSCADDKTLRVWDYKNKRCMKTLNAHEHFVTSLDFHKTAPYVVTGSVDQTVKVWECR
As to the kind of experiment: mass photometry.

In another assay the target is T2, human Lis1 (wild type) (human, UniProt P43034 1-410).
T2 sequence: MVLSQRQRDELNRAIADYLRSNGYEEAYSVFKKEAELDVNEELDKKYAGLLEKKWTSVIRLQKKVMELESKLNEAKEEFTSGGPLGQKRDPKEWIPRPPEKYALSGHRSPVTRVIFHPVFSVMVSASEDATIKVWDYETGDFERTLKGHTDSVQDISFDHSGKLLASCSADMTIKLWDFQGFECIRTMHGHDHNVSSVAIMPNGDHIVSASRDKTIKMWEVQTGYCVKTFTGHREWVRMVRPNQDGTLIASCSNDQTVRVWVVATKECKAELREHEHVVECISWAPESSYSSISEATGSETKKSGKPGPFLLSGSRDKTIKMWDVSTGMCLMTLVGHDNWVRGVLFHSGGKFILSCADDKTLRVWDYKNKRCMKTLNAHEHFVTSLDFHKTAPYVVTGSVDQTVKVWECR
As to the kind of experiment: mass photometry.

Assay [4] concerns the target T3, Lis1^AAA6 (N203K, D205K and Q222A) (human, UniProt P43034 1-410, N203K | D205K | Q222A).
T3 sequence (looked up): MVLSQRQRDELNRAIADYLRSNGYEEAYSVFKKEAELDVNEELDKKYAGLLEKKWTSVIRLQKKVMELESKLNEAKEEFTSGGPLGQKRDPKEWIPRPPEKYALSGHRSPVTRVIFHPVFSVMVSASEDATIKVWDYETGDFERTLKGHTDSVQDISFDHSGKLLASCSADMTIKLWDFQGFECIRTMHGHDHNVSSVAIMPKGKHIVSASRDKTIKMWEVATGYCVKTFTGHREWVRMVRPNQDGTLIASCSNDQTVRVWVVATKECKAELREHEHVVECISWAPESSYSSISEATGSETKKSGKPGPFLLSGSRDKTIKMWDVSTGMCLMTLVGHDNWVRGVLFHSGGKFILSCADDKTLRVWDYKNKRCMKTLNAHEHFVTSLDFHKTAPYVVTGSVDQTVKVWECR
Nature of the assay: mass photometry.

The target of assay [5] is T4, Lis1^All (D192K, D205K, E300A and K303A) (human, UniProt P43034 1-410, D192K | D205K | E300A | K303A).
T4 sequence (looked up): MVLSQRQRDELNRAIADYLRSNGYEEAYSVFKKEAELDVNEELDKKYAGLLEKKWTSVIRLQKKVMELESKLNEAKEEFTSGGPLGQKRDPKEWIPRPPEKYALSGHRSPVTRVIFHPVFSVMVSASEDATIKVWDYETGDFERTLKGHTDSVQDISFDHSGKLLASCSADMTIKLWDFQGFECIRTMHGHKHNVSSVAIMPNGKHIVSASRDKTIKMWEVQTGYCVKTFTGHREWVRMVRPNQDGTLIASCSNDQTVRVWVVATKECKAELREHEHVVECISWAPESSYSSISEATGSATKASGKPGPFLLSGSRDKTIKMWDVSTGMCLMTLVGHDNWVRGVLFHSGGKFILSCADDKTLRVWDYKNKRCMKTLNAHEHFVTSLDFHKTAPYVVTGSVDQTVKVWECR
Nature of the assay: mass photometry.

2 molecules from paper PMC12965811 (Nature chemical biology, 2025) can be followed below.

In assay [1], “human Lis1 (wild type) (from UniProt P43034 1-410) (natural protein)” showed a percent of 1:1 dynein:Lis1 complex (no Nde1, within 60 min) of 37%; a percent of complex formation (with Nde1, within a minute) of 69%; a stoichiometry N (Lis1 dimer per dynein dimer) of 1; a stoichiometry N (Lis1 dimer per dynein) of 1. In assay [2], this molecule had a percent of autoinhibited dynein particles in the Phi^L–Lis1 conformation of 57.3% and a stoichiometry N (Lis1 dimer per dynein) of 1.

B1: human Nde1 (N-terminal residues 1–190) (domain or fragment, UniProt Q9NXR1 1-190, looked up)
chain: MEDSGKTFSSEEEEANYWKDLAMTYKQRAENTQEELREFQEGSREYEAELETQLQQIETRNRDLLSENNRLRMELETIKEKFEVQHSEGYRQISALEDDLAQTKAIKDQLQKYIRELEQANDDLERAKRATIMSLEDFEQRLNQAIERNAFLESELDEKENLLESVQRLKDEARDLRQELAVQQKQEKPR
Take B1: the binding result (in assay [3]; in the assay with human Lis1 (wild type); in assay [4]; in assay [5]) was “binds” throughout.
